Laboratory results taken from patent US20120156198A1 (Hoffmann-La Roche, published 2012).
Where a chain is given by its changes, count along the chain named. Values belong to the binder of their own block, whether it stands above or below them.

Target: T1, rhIL-1RI/hFc (R&D Systems, Cat. No. 269-1R) (human, UniProt P14778 18-332)
T1 construct: Bought; not shown: human Fc (hFc) of the commercial protein
T1 sequence (looked up): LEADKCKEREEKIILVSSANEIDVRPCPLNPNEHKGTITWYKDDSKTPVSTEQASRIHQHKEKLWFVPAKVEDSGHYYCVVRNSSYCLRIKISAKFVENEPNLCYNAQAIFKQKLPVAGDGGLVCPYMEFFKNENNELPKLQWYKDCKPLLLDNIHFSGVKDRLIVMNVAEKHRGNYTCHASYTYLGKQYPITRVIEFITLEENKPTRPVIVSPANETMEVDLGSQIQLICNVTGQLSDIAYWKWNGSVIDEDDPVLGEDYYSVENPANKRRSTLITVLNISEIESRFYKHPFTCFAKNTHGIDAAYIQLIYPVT
Assay: ELISA, hFc fusion protein captured on anti-human Fc
Protocol: The test was performed on 384-well microtiter plates (MaxiSorp™, Thermo Scientific Nunc, DK, Cat. No. 464718) at RT. After each incubation step, plates were washed 3 times with PBST. At the beginning, plates were coated with 0.5 μg/ml goat anti-human IgG Fc fragment (Jackson 1 mm. Res., US, Cat. No. 109-006-170) for at least 2 hours (h). Thereafter the wells were blocked with PBS supplemented with 0.2% Tween®-20 and 2% BSA (Roche Diagnostics GmbH, DE) for 1 h. 0.2 μg/ml of recombinant human IL-18Rα-Fc fusion protein (R&D Systems, UK, Cat. No. 816-LR) was captured on plate for 1 h. For testing the binding of antibodies to other proteins of the IL-1 receptor family 0.2 μg/ml of the following recombinant human proteins conjugated to human Fc (hFc) were captured: [0194] rhIL-1RI/hFc (R&D Systems, UK, Cat. No. 269-1R) [0195] rhIL-1sRII/hFc (R&D Systems, UK, Cat. No. 263-2R) [0196] rhIL-1R3/hFc (R&D Systems, UK, Cat. No. 676-CP) [0197] rhIL-2Rα/hFc (R&D Systems, UK, Cat. No. 1020-RL) [0198] rhIL-7Rα/hFc (R&D Systems, UK, Cat. No. 306-IR) [0199] rhIL-15R/hFc (R&D Systems, UK, Cat. No. 147-IR) [0200] rhST-2/hFc (R&D Systems, UK, Cat. No. 523-ST)
After washing the plate, dilutions of purified antibodies in PBS with 0.05% BSA and 0.2% Tween®-20 were incubated with the receptor proteins for 1 h. Binding of antibodies was detected with 1:2000 diluted horseradish peroxidase (HRP)-conjugates of anti-mouse IgG (GE Healthcare, UK, Cat. No. NA9310V). After 1 h the plates were washed 6 times with PBST and developed with freshly prepared BM Blue® POD substrate solution (BM Blue®: 3,3″-5,5″-Tetramethylbenzidine, Roche Diagnostics GmbH, DE, Cat. No. 11484281001) for 30 minutes at RT. Absorbance was measured at 370 nm. The values were corrected for the control without antibody.

absorbance at 370 nm (corrected for the control without antibody): 0.01
B1: Mab 1G12 (antibody, V domains shown)
VH: QVQLQQPGAELVKPGASVRMSCKTSDYTFTSNWMHWVKQRPGQGLEWIGTIDPSDSYTYYNQKFKGRATLTVDTSSSTAYMQLSSLTSEDSAVYYCTTSGDYDADRYFDVWGAGTTVTVSS
VL: DIVLTQSPASLGVSLGQRATISCRASKSVSTSGDSYMHWYQQKPGQSPKLLIYLASNLESGVPARFSGSGSGTDFTLNIHPVEEEDAATYYCQQSRELPLSFGAGTKLELK
notes: Monoclonal antibody from immunized NMRI mice; detected with anti-mouse IgG1-PE / anti-mouse IgG; also called F20.1G12; monoclonal antibody 1G12

absorbance at 370 nm (corrected for the control without antibody): 0.02
B2: Mab 2D11 (antibody, V domains shown)
VH: B1 VH with R19K, T24A, R67K, Q82H
VL: B1 VL
notes: Monoclonal antibody from immunized NMRI mice; detected with anti-mouse IgG1-PE / anti-mouse IgG; also called F20.2D11
